Each molecule was assayed against TrioGEFD2 (Homo sapiens, UniProt O75962) (assay: In vitro guanine nucleotide exchange (GEF) assay on RhoA). Settings: 20-fold molar excess (8 μM) inhibitor, 0.4 μM GST-GEFD2, 0.3 μM [3H]GDP-RhoA, 15 min.
Assay type: biochemical
Set-up: using recombinant GST-TrioGEFD2 (a.a. 1848-2298), TrioDH2 (a.a. 1848-2096); made in house
Protocol: For that purpose, aptamers, TrioGEFD2 and RhoA are expressed as GST-fusion proteins. RhoA is loaded with ^3H-GDP, and the release of GDP is followed after addition of GEFD2 in presence or in absence of the selected aptamers (as described in Debant et al., 1996).
A 20-fold molar excess (8 μM) of GST-aptamers TRIAPα, TRIAPβ (another TrioGEFD2 binding aptamer), TRIAPγ (another TrioGEFD2 binding aptamer) or the empty thioredoxine (Trx) were pre-incubated with 0.4 μM GST-GEFD2 (left side of FIG. 2A) or 0.4 μM GST-DH2 (right side of FIG. 2A), as indicated, before adding 0.3 μM of [^3H]GDP loaded GST-RhoA. The exchange activity was monitored by the decrease of [^3H]GDP bound-RhoA after 15 min (see Materials and Methods). The amount of [^3H]GDP bound-RhoA incubated without GEF (first bar on the left) was defined as 100% The values and errors bars were calculated from at least three independent experiments.
0.4 μM GST-GEFD2 were incubated with increasing amounts of GST-TRIAPα (grey bars) or GST (black bars), and the exchange assay was then performed on 0.3 μM RhoA, as described in A.
An in vitro guanine nucleotide exchange (GEF) assay was used to test whether the TrioGEFD2-binding aptamers could inhibit the catalytic activity of TrioGEFD2 towards RhoA. For this purpose, the aptamers TRIAPα, TRIAPβ and TRIAPγ (including the Trx gene) were excised from pEG202 as EcoRI/NotI fragments and cloned into pGEX4T1 EcoRI/NotI. The aptamers were then expressed and purified from bacteria as GST fusion proteins, using standard procedures (Smith and Johnson, 1988). GTPase-GST fusion proteins were prepared, loaded with [^3H]GDP and the guanine nucleotide release assays were performed as described (Debant et al., 1996), using recombinant GST-TrioGEFD2 (a.a. 1848-2298), TrioDH2 (a.a. 1848-2096). For each point, 0.3 μM GTPase was mixed with or without 0.4 μM GEF in presence of non-labeled GTP, and the reaction mix was filtered after 0 min and 15 mm reaction at 25° C. The catalytic activity of TrioGEFD2 was thus measured by the decrease of the GTPase-associated radioactivity. The results are expressed as the ratio “exchange after 15 min over exchange after 0 min” (% bound [^3H]GDP-RhoA). To measure the effect of the aptamers on the exchange activity, a 20-fold molar excess of GST-TRIAPs was pre-incubated with GEFD2 (or GEFD1) for 30 min on ice before the exchange assay was carried out. For each experiment, data were obtained in triplicate.

| Molecule | Inhibition of TrioGEFD2 exchange activity on RhoA in vitro |
| --- | --- |
| TRIAPα 9-40: variant of TRIAPα containing TRIPα 9-40 (SEQ ID NO: 8) inserted into the thioredoxin (protein) MSDKIIHLTDDSFDTDVLKADGAILVDFWAEWCGPICGYNLATLVMLGPSERVFCPLCEPCSSDIYEGPCKMIAPILDEIADEYQGKLTVAKLNIDQNPGTAPKYGIRGIPTLLLFKNGEVASATKVGALSKGQLKEFLDANLA | displayed fill inhibitory activity |
| TRIAPα 9-33: variant of TRIAPα containing TRIPα 9-33 (SEQ ID NO: 16) inserted into the thioredoxin (protein) MSDKIIHLTDDSFDTDVLKADGAILVDFWAEWCGPICGYNLATLVMLGPSERVFCPLCEPGPCKMIAPILDEIADEYQGKLTVAKLNIDQNPGTAPKYGIRGIPTLLLFKNGEVASATKVGALSKGQLKEFLDANLA | had a reduced activity |
| TRIAPα 9-42: variant of TRIAPα containing TRIPα 9-42 (SEQ ID NO: 6) inserted into the thioredoxin (protein) MSDKIIHLTDDSFDTDVLKADGAILVDFWAEWCGPICGYNLATLVMLGPSERVFCPLCEPCSSDIYELMGPCKMIAPILDEIADEYQGKLTVAKLNIDQNPGTAPKYGIRGIPTLLLFKNGEVASATKVGALSKGQLKEFLDANLA | did not alter its inhibitory effect |
| TRIAPα 9-36: variant of TRIAPα containing TRIPα 9-36 (SEQ ID NO: 12) inserted into the thioredoxin (protein) MSDKIIHLTDDSFDTDVLKADGAILVDFWAEWCGPICGYNLATLVMLGPSERVFCPLCEPCSSGPCKMIAPILDEIADEYQGKLTVAKLNIDQNPGTAPKYGIRGIPTLLLFKNGEVASATKVGALSKGQLKEFLDANLA | displayed fill inhibitory activity |
| TRIAPα 1-33: variant of TRIAPα containing TRIPα 1-33 (SEQ ID NO: 18) inserted into the thioredoxin (protein) MSDKIIHLTDDSFDTDVLKADGAILVDFWAEWCGPAREGADGAICGYNLATLVMLGPSERVFCPLCEPGPCKMIAPILDEIADEYQGKLTVAKLNIDQNPGTAPKYGIRGIPTLLLFKNGEVASATKVGALSKGQLKEFLDANLA | displayed fill inhibitory activity |
| TRIAPα 9-38: variant of TRIAPα containing TRIPα 9-38 (SEQ ID NO: 10) inserted into the thioredoxin (protein) MSDKIIHLTDDSFDTDVLKADGAILVDFWAEWCGPICGYNLATLVMLGPSERVFCPLCEPCSSDIGPCKMIAPILDEIADEYQGKLTVAKLNIDQNPGTAPKYGIRGIPTLLLFKNGEVASATKVGALSKGQLKEFLDANLA | displayed fill inhibitory activity |
| TRIAPα 9-34: variant of TRIAPα containing TRIPα 9-34 (SEQ ID NO: 14) inserted into the thioredoxin (protein) MSDKIIHLTDDSFDTDVLKADGAILVDFWAEWCGPICGYNLATLVMLGPSERVFCPLCEPCGPCKMIAPILDEIADEYQGKLTVAKLNIDQNPGTAPKYGIRGIPTLLLFKNGEVASATKVGALSKGQLKEFLDANLA | displayed fill inhibitory activity |
